Assay results: patent US12551573B2, “Compositions and methods for the targeting of PCSK9” (Scribe Therapeutics Inc., priority 2022, dated 2026)

Experiments:
human B2M locus = experiment: Editing (indel rate by NGS) at the B2M locus in HepG2 cells treated with LNPs; assay type: cell-based; details: LNPs with CasX 491 mRNA + gRNA spacer 7.9 (v1), highest dose of 250 ng
Protocol: ˜50,000 HepG2 cells, cultured in DMEM/F-12 media containing 10% FBS and 1% PenStrep, were seeded per well in a 96-well plate. The next day, seeded cells were treated with varying concentrations of LNPs, which were prepared in six 2-fold serial dilutions starting at 250 ng. These LNPs were formulated to encapsulate CasX 491 mRNA and a B2M-targeting gRNA incorporating either scaffold variant 174 or 316 with spacer 7.9 (v1; see Table 26). […] Briefly, for editing assessment, amplicons were amplified from 200 ng of extracted gDNA with primers targeting the human B2M locus and processed by NGS using similar methods as described in Example 7.

human PCSK9 locus [1] = experiment: Editing (indel rate by NGS) at the PCSK9 locus in HepG2 cells transfected with CasX 491 mRNA and gRNA; assay type: cell-based; details: CasX 491 mRNA + v1 gRNAs, spacers 6.7 and 6.8, 28 hours
Protocol: (§1) Editing at the PCSK9 locus and consequential effects on secreted PCSK9 levels were assessed for conditions using CasX 491 mRNA co-delivered with a PCSK9-targeting gRNA with scaffold variant 174 compared to conditions where a PCSK9-targeting gRNA with scaffold variant 316 was used. 100 ng of in vitro transcribed mRNA coding for CasX 491 with a P2A and mScarlet fluorescent protein was transfected into HepG2 cells with version 1 (v1) of gRNAs 174-6.7, 174-6.8, 316-6.7, and 316-6.8 (see Table 26) using Lipofectamine™. After a media change, the following were harvested at 28 hours post-transfection: 1) transfected cells were harvested for editing assessment at the PCSK9 locus by NGS (next generation sequencing); and 2) media supernatant was harvested to measure secreted PCSK9 protein levels by ELISA. For editing analysis by NGS, amplicons were amplified from 200 ng of extracted gDNA with a set of primers targeting the PCSK9 locus and processed by NGS (described below). Secreted PCSK9 levels in the media supernatant were also analyzed using a fluorescence resonance energy transfer-based immunoassay from CISBio following the manufacturer's instructions. […]
(§2) V1 through v6 variants of chemically-modified PCSK9-targeting gRNAs (Table 26) were assessed for their effects on editing potency and consequential effects on secreted PCSK9 levels in vitro. […]

6.7/6.8 target dsDNA [2] = experiment: In vitro cleavage assay of CasX 491 RNPs: cleavage rate (kcleave); assay type: biochemical; details: CasX RNP, 20-fold excess RNP
Protocol: (§3) Double-stranded DNA (dsDNA) targets were formed by mixing the oligos in a 1:1 ratio in 1× cleavage buffer (20 mM Tris HCl PH 7.5, 150 mM NaCl, 1 mM TCEP, 5% glycerol, 10 mM MgCl2), following by heating to 95° C. for 10 minutes, and then allowing the solution to cool to room temperature. CasX ribonucleoproteins (RNPs) were reconstituted with CasX 491 and the indicated gRNAs at a final concentration of 1 μM with 1.2-fold excess of the indicated gRNA in 1x cleavage buffer. RNPs were allowed to form at 37° C. for 10 minutes.
The effects of various structural and chemical modifications to the gRNA scaffold on the cleavage rate of CasX 491 RNPs were determined. Cleavage reactions were prepared with final RNP concentrations of 200 nM and final target concentrations of 10 nM, and reactions were carried out at 16° C. and initiated by the addition of the labeled target DNA substrate (Table 27). Aliquots of reactions were taken at 0.25, 0.5, 1, 2, 5, and 10 minutes and quenched by adding an equal volume of 95% formamide with 20 mM EDTA. Samples were denatured at 95° C. for 10 minutes and resolved on a 10% urea-PAGE gel. Gels were imaged on a Typhoon™ laser-scanner platform and quantified using ImageQuant™ TL 8.2 image analysis software (Cytiva™). The apparent first-order rate constant of non-target strand cleavage (kcleave−) was determined for each CasX:gRNA combination.

B2M locus = experiment: B2M knockout (HLA flow cytometry) in HEK293 cells transduced with AAV; assay type: cell-based, human; details: spacer 7.37, MOI 1E4, 3E3, 1E3 vg/cell, 5 days
human PCSK9 locus [3] = experiment: Secreted PCSK9 levels in HepG2 cells transfected with CasX 491 mRNA and gRNA; assay type: cell-based; details: CasX 491 mRNA + v1 gRNAs, spacers 6.7 and 6.8, 28 hours
Protocol: as §1, §2

6.7/6.8 target dsDNA [4] = experiment: In vitro cleavage assay of CasX 491 RNPs: competent (active) fraction; assay type: biochemical; details: spacer 6.7 or 6.8, v1; equimolar RNP and DNA target
Protocol: as §3
To determine the competent fraction formed by each gRNA, cleavage reactions were prepared with final RNP concentrations of 100 nM and final target concentrations of 100 nM. Reactions were carried out at 37° C. and initiated by the addition of the labeled target substrate (Table 27). Aliquots were taken at 0.5, 1, 2, 5, 10, and 30 minutes and quenched by adding an equal volume of 95% formamide with 25 mM EDTA. Samples were denatured by heating at 95° C. for 10 minutes and resolved on a 10% urea-PAGE gel. Gels were imaged and quantified as above. […] The plateau of each fit was determined and reported as the active fraction for each RNP in Table 30.

B1: scaffold 316: chimeric gRNA scaffold, SEQ ID NO: 1746 (nucleic acid)
guide: ACUGGCGCUUCUAUCUGAUUACUCUGAGCGCCAUCACCAGCGACUAUGUCGUAGUGGGUAAAGCUCCCUCUUCGGAGGGAGCAUCAGAG
modifications: listed as RNA, chemistry not fully specified
Human B2M locus
  editing level at the B2M locus vs scaffold 174: nearly two-fold higher
Human PCSK9 locus [1]
  increase in editing rate at the PCSK9 locus over scaffold 174: ~10 percentage point
6.7/6.8 target dsDNA [2]; spacer 6.7, v1
  cleavage rate vs scaffold 174: marginally faster cleavage
6.7/6.8 target dsDNA [2]; spacer 6.8, v1
  cleavage rate vs scaffold 174: nearly twice as quickly
B2M locus
  editing at the B2M locus vs scaffold 235: appeared to improve editing at the B2M locus
Human PCSK9 locus [3]
  reduction of PCSK9 secretion vs scaffold 174: more effective reduction of PCSK9 secretion
6.7/6.8 target dsDNA [4]
  active fraction of CasX RNPs, higher than scaffold 174: 25-30%
